Results reported in patent US20170129954A1 (PROTHENA BIOSCIENCES, published 2017).

T1: human MCAM domain 1 (amino acids 19-129) hFc (human, UniProt P43121 19-129)
T1 construct: One of the various MCAMhFc domains captured on anti-human IgG Fc biosensors; also called MCAMhFc domain; not shown: human IgG Fc (hFc)
T1 sequence: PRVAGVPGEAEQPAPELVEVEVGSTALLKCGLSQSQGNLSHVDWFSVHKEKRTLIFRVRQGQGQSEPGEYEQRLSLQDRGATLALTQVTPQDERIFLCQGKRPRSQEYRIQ

T2: human MCAM, full length, expressed on transfected cells (human, UniProt P43121 24-646)
T2 construct: also called CD146; MUC18
T2 chain: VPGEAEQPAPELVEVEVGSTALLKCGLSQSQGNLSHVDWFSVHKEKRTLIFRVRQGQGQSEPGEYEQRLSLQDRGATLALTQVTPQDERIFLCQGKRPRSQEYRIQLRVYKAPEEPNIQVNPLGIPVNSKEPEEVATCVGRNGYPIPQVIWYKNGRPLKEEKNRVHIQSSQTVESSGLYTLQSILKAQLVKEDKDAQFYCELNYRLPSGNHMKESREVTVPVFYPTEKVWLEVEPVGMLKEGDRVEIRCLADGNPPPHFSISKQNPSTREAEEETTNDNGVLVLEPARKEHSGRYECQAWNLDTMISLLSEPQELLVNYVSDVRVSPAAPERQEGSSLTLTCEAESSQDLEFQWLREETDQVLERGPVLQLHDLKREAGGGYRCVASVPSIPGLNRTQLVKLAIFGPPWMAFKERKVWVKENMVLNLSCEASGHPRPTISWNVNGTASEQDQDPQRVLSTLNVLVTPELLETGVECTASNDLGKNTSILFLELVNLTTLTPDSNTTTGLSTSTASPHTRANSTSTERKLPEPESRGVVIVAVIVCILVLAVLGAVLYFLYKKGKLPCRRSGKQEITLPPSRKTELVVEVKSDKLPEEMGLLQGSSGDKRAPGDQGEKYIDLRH

T3: human MCAM domain 2 (amino acids 139-242) hFc (human, UniProt P43121 139-242)
T3 construct: One of the various MCAMhFc domains captured on anti-human IgG Fc biosensors; also called MCAMhFc domain; not shown: human IgG Fc (hFc)
T3 sequence: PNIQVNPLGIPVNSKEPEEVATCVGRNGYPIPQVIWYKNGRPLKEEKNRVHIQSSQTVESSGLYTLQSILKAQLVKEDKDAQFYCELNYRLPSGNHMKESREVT

T4: combination of human MCAM domains 1 and 2 (amino acids 19-242) hFc (human, UniProt P43121 19-242)
T4 construct: One of the various MCAMhFc domains captured on anti-human IgG Fc biosensors; also called combination of domains 1 and 2; MCAMhFc domain; not shown: human IgG Fc (hFc)
T4 sequence: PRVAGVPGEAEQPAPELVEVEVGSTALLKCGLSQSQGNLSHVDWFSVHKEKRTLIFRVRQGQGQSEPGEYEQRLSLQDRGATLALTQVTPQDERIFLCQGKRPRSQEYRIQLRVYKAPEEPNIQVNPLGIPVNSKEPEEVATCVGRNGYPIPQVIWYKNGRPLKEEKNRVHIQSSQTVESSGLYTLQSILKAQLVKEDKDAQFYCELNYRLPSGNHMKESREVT

T5: human MCAM (antigen of the BLI kinetics in Example 7) (human, UniProt P43121 24-559, limits assumed)
T5 chain: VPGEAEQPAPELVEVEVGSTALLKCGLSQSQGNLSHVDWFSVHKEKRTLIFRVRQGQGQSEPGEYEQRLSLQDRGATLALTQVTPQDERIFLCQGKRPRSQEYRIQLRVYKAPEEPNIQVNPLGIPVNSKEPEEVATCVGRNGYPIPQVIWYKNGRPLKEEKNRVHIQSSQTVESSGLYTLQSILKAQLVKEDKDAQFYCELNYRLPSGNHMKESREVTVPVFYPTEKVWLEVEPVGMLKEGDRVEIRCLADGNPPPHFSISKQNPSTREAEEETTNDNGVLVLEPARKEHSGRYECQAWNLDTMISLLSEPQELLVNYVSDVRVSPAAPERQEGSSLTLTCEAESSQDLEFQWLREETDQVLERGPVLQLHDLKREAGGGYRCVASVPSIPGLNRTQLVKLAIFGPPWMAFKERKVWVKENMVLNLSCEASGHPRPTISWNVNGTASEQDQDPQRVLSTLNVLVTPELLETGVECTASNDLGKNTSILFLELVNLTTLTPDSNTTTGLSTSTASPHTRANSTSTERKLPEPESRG


How the values were obtained:
[1] = target: T1, human MCAM domain 1 (amino acids …); experiment: ForteBio BLI, MCAMhFc domains on anti-human IgG Fc biosensors
Description: (§1) The following protocol was used: ForteBio anti-human IgG Fc biosensors were used to immobilize various MCAMhFc domains including full length MCAMhFc protein on to biosensor surface. […] After loading these samples into a black 96 well plate, the Octet Red was programmed as follows: 60 seconds for baseline #1; 180 seconds for loading various domains; 60 seconds for baseline #2; 180 seconds for association of antibody to domain; and 240 seconds for dissociation of antibody from domain.
(§2) 1. MCAMhFc final concentration @ 5 ug/ml [0329] […] 3. ForteBio anti-human IgG Fc Capture (AHC) biosensors for kinetics experiments, cat #18-5060 [0331] 4. Block 96 well plate from Greiner Bio-one, cat #655209 [0332] 5. ForteBio Octet Red machine [0333] 6. Fresh tissue culture medium, DMEM with 20% FCS, was used as buffer for dilution The results from these analyses are as follows.

[2] = target: T2, human MCAM, full length, expressed on …; experiment: flow cytometry, blocking of recombinant human laminin 411 (20 ug/ml) binding to CHO cells expressing human MCAM
Protocol: The 87 independent mouse fusion clones and 26 independent rat fusion clones described in Example 1 above as being capable of (i) binding to human MCAM, and (ii) blocking the interaction between human MCAM and the α-4 chain of laminin were further characterized as follows. First, IC50 quantitation for the ability of the monoclonal antibody to block the binding of human MCAM to the α-4 chain of laminin was determined as follows. CHO cells expressing human MCAM were incubated with an anti-human MCAM antibody (at various concentrations) for 30 minutes at 4 degrees Celsius. […] Unbound laminin was then washed away, and the laminin bound to the surface of the cells was detected with fluorescently labeled anti-laminin antibodies. After washing, the amount of laminin bound to the surface was detected by flow cytometry, and IC50s were calculated based on the mean fluorescent intensity.
Amino acid and nucleic acid sequences of the heavy and light chains of these antibodies, and their hypervariable regions, are provided in SEQ ID NOs:29-92. […] As such, each of these specific monoclonal antibodies was very capable of binding to human MCAM and inhibiting the interaction of cell-expressed human MCAM with its α-4 laminin binding ligand.

[3] = target: T3, human MCAM domain 2 (amino acids …); experiment: ForteBio BLI, MCAMhFc domains on anti-human IgG Fc biosensors
Description: as §1, §2

[4] = target: T4, combination of human MCAM domains 1 and …; experiment: as above
Description: as §1, §2

[5] = target: laminin α-4 (UniProt Q16363 25-1823); experiment: FACS on mammalian cells displaying the mutant
Description: Twenty point mutants based on the structure information and shotgun mutagenesis information were designed and generated.

[6] = target: T5, human MCAM (antigen of the BLI kinetics …); experiment: BLI, ForteBio Octet QK, apparent ka
Description: (§3) Apparent ka, apparent kd and apparent KD are binding kinetic parameters obtained using ForteBio assay formats.

[7] = target: T5, human MCAM (antigen of the BLI kinetics …); experiment: BLI, ForteBio Octet QK, apparent KD
Description: as §3

[8] = target: T5, human MCAM (antigen of the BLI kinetics …); experiment: BLI, ForteBio Octet QK, apparent kd
Description: as §3

Sequence of laminin α-4 (Q16363 25-1823): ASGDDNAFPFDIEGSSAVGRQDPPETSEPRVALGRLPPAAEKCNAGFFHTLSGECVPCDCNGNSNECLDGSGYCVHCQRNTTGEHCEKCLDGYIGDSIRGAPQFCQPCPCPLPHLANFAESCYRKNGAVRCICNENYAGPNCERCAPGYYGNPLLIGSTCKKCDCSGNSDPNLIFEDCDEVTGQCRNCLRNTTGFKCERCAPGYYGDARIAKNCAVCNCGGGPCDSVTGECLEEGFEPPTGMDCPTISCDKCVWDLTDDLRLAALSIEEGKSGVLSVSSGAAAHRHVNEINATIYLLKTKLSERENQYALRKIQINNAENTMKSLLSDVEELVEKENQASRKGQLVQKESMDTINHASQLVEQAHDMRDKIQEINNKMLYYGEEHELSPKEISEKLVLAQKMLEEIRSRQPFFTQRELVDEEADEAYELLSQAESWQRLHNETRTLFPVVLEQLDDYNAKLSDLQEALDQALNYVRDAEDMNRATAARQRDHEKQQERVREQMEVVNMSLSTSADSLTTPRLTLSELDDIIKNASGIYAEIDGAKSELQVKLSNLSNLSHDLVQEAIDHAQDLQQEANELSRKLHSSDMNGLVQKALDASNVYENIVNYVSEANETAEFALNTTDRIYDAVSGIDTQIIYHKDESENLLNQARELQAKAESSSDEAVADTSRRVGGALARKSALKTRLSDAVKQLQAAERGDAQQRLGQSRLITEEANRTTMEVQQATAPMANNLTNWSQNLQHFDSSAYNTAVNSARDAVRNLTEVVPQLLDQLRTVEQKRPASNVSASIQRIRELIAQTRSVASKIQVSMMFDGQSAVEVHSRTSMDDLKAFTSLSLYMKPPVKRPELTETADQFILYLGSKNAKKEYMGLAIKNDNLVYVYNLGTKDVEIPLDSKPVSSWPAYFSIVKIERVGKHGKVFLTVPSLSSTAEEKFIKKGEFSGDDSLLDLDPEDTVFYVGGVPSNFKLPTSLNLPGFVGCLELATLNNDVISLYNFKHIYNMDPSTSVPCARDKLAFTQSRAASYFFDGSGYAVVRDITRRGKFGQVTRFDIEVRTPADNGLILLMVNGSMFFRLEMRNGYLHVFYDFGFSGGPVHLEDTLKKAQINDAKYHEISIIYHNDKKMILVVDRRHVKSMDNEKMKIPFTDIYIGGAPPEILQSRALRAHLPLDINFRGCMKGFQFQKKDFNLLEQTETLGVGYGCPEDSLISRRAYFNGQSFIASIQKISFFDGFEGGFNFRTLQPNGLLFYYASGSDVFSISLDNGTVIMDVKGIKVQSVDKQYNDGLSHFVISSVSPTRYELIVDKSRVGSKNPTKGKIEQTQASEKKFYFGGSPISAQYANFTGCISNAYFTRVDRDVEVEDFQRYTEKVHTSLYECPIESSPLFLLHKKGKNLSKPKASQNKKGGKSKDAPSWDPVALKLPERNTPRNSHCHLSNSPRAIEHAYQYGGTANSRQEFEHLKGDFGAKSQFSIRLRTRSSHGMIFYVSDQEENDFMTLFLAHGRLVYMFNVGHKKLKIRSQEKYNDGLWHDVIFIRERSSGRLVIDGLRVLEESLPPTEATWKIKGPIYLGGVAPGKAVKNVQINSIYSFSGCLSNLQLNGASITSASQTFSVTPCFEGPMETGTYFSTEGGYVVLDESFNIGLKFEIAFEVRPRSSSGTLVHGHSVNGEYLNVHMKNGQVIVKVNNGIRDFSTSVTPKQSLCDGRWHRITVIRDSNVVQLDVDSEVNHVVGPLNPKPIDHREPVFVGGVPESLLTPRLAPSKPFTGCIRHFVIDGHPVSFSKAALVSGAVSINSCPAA

| Binder | binding result [1] | IC50 [2] | binding result [3] | binding result [4] | binding result [5] | kon [6] | Kd [7] | koff [8] |
| --- | --- | --- | --- | --- | --- | --- | --- | --- |
| rat anti-human MCAM monoclonal antibody clone 2107.4.10 (antibody, V domains shown, Rat hybridoma monoclonal antibody) VH: QVQLKESGPGLVQSSQTLSLTCTVSGFSLTSNGVSWVRQPPGKGLEWIAAISSGGSTYYNSAFKSRLSISRNTSKSQVLLKMNSLQTEDTGMYFCARHRPFYFDYWGQGVMVTVSS VL: DIQVTQSPSLLSASVGDRVTLNCKGSQNIYKSLAWFRLKRGEAPKLLIYDANSLQTGIPSRFSGSGSGTDFTLTITSLQPEDVATYFCQQYYSGYTFGAGTKLELK | no binding (tested: 5 ug/ml) | 0.29 µg/mL |  |  |  |  |  |  |
| mouse anti-human MCAM monoclonal antibody clone 1174.1.3 (antibody, V domains shown, Mouse hybridoma monoclonal antibody) VH: QIQLVQSGPELKKPGETVKISCKASGYTFTNYGMNWVKQAPGKGLKWMGWINTYTGEPTYADDFKGRFALSLETSASTAYLQINNLKNEDMATYFCARYRYNKYERAMDYWGQGTSVTVSS VL: DIVLTQSPASLAVSLGQRATISCRASKSVSTSGYSYMYWYQQKPGQPPKLLIYLASNLESGVPARFSGSGSGTDFTLNIHPVEEEDAATYYCQHSRELPFTFGSGTKLEIK | no binding (tested: 5 ug/ml) | 0.469 µg/mL | no binding (tested: 5 ug/ml) | no binding (tested: 5 ug/ml) |  |  |  |  |
| mouse anti-human MCAM monoclonal antibody clone 1415.1.1 (antibody, V domains shown, Mouse hybridoma monoclonal antibody) VH: QVQLQQPGAELVQPGAPVKLSCKASGYIFTSYWMNWVKQRPGRGLEWIGRIDPSDSKIHYNQKFKDKATLTVDRSSSTAYIQLGSLTSEDSAVYYCAKEGGLRRGDYAMDYWGQGTSVTVSS VL: DIVMTQSPATLSVTPGDRVSLSCRASQSISDYLHWYQQKSHESPRLLIKYASQSISGIPSRFSGSGSGSDFTLSINSVEPEDVGVYYCQNGHNFPRTFGGGTKLEIK | no binding (tested: 5 ug/ml) | 0.307 µg/mL | no binding (tested: 5 ug/ml) | no binding (tested: 5 ug/ml) |  |  |  |  |
| rat anti-human MCAM monoclonal antibody clone 2120.4.19 (antibody, V domains shown, Rat hybridoma monoclonal antibody) VH: QVQLKESGPGLVQPSQTLSLTCTVSGFSLTSNGVSWVRQPPGKGLEWIAAISSGGTTYYNSAFKSRLSISRNTSKSQVLLKMNSLQTEDTAMYFCARRYGYGWYFDFWGPGTMVTVSS VL: DIRMTQSPSLLSASVGDRVTLNCKASQNIYNSLAWYQQKLGEGPKVLIFNANSLQTGIPSRFSGSGSGTDFTLTISSLQPEDFATYFCQQFYSGYTFGAGTKLELK | no binding (tested: 5 ug/ml) | 0.888 µg/mL |  |  |  |  |  |  |
| human MCAM I141A single mutant displayed on mammalian cells (receptor) VPGEAEQPAPELVEVEVGSTALLKCGLSQSQGNLSHVDWFSVHKEKRTLIFRVRQGQGQSEPGEYEQRLSLQDRGATLALTQVTPQDERIFLCQGKRPRSQEYRIQLRVYKAPEEPNAQVNPLGIPVNSKEPEEVATCVGRNGYPIPQVIWYKNGRPLKEEKNRVHIQSSQTVESSGLYTLQSILKAQLVKEDKDAQFYCELNYRLPSGNHMKESREVTVPVFYPTEKVWLEVEPVGMLKEGDRVEIRCLADGNPPPHFSISKQNPSTREAEEETTNDNGVLVLEPARKEHSGRYECQAWNLDTMISLLSEPQELLVNYVSDVRVSPAAPERQEGSSLTLTCEAESSQDLEFQWLREETDQVLERGPVLQLHDLKREAGGGYRCVASVPSIPGLNRTQLVKLAIFGPPWMAFKERKVWVKENMVLNLSCEASGHPRPTISWNVNGTASEQDQDPQRVLSTLNVLVTPELLETGVECTASNDLGKNTSILFLELVNLTTLTPDSNTTTGLSTSTASPHTRANSTSTERKLPEPESRGVVIVAVIVCILVLAVLGAVLYFLYKKGKLPCRRSGKQEITLPPSRKTELVVEVKSDKLPEEMGLLQGSSGDKRAPGDQGEKYIDLRH |  |  |  |  | no binding |  |  |  |
| Chimeric 1749 (antibody, V domains shown, also called ch1749) VH: DVKLVESGGDLVKPGGSLKLSCAASGFTFSSYIMSWVRQTPEKRLEWVATISSGGSSTYYPDSVKGRFTISRDNAKNTLYLQMSSLKSEDTAMYYCTRDDDYDVKVFAYWGQGTLVTVSA VL: DIVMSQSPSSLAVSAGEKVTMNCKSSRSLLNSRIRKNYLAWYQQKPGQSPKLLIYWASTRESGVPDRFTGSGSGTDFTLTISSVQAEDLAVYYCKQSYNLLTFGAGTKLELK |  |  |  |  |  | 1.94e+06 M⁻¹ s⁻¹ | 0.226 nM | 0.000439 s⁻¹ |
| mouse anti-human MCAM monoclonal antibody clone 1414.1.2 (antibody, V domains shown, Mouse hybridoma monoclonal antibody) VH: EIQLQQTGPELVKPGASVKISCKASGYSFTDYIMLWVKQSHGKSLEWIGNINPYSGSSGYNLKFKGKATLTVDKSSSTAYMQLNSLTSEDSAVYYCARGKDFAMDYWGQGTSVTVSS VL: DIVMSQSPSSLAVSAGEKVTMSCKSSQSLLNSSTRKNFLAWYQQKPGQSPKLLIYWASTRESGVPDRFTGSGSGTDFTLTISSVQAEDLAVYYCKQSYNRYTFGGGTKLEIK | no binding (tested: 5 ug/ml) | 0.431 µg/mL | no binding (tested: 5 ug/ml) | no binding (tested: 5 ug/ml) |  |  |  |  |
| Human 1749VH3VL3 (Hu1749VHv3 and Hu1749VLv3) (antibody, V domains shown, also called hu1749VH3VL3; hu1749H3L3) VH: EVKLVESGGGLVQPGGSLRLSCAASGFTFSSYIMSWVRQTPEKRLEWVATISSGGSSTYYPDSVKGRFTISRDNAKNTLYLQMSSLKSEDTAMYYCTRDDDYDVKVFAYWGQGTLVTVSS VL: DIVMTQSPSSLAVSLGERVTINCKSSRSLLNSRIRKNYLAWYQQKPGQSPKLLIYWASTRESGVPDRFSGSGSGTDFTLTISSLQAEDVAVYYCKQSYNLLTFGQGTKVEIKR |  |  |  |  |  | 1.99e+06 M⁻¹ s⁻¹ | 0.221 nM | 0.00044 s⁻¹ |
